Like-named read-outs stand apart in the source and are kept apart here.
Experiments:
[1] = target: NpHtrII (Natronomonas pharaonis) (UniProt P42259); conditions: cited from earlier work
[2] = target: NpHtrII (Natronomonas pharaonis) (UniProt P42259); conditions: cited from earlier work; remark: listed apart in the source
[3] = target: T1, NpSRII/NpHtrII1-135 complex (Natronomonas pharaonis, UniProt P42196); assay: X-ray crystallography; format: binding; conditions: space group P21212; covalent (retinal Schiff base, Lys205); retinal isomer not stated separately for this crystal
T1 construct: gene sop2; wild-type NpSRII with truncated transducer NpHtrII residues 1-135; produced in E. coli, reconstituted; 2:2 complex; with Sensory rhodopsin II transducer

[4] = target: T2, NpSRII/NpHtrII1-135 complex (Natronomonas pharaonis, UniProt P42196); assay: X-ray crystallography; format: binding; conditions: ground state; covalent (retinal Schiff base, Lys205); retinal isomer not stated separately for this crystal
T2 construct: gene sop2; wild-type NpSRII with truncated transducer NpHtrII residues 1-135; produced in E. coli, reconstituted; 2:2 complex; with Sensory rhodopsin II transducer
T2 sequence (P42196 2-239): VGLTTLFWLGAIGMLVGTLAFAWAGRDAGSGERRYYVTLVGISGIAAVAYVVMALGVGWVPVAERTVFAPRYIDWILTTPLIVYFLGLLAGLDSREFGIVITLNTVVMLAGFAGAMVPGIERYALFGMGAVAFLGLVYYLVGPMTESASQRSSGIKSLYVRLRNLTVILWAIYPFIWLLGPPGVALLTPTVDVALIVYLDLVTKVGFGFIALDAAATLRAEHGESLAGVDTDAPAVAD
T2 sequence (P42259 1-135 partner): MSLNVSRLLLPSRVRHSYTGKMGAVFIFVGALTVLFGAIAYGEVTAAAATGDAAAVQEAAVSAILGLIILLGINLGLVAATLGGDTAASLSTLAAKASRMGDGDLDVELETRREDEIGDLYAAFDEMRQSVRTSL

[5] = target: T3, NpSRII/NpHtrII1-157 complex (sensory rhodopsin II with its cognate transducer) (Natronomonas pharaonis, UniProt P42196); assay: X-ray crystallography; format: binding; conditions: ground state; space group I212121; 1.9 A; in meso crystals, pH 5.6; covalent (retinal Schiff base, Lys205)
T3 construct: gene sop2; wild-type NpSRII with truncated transducer NpHtrII residues 1-157; produced in E. coli, reconstituted; 2:2 complex; with Sensory rhodopsin II transducer
T3 sequence (P42196 2-239): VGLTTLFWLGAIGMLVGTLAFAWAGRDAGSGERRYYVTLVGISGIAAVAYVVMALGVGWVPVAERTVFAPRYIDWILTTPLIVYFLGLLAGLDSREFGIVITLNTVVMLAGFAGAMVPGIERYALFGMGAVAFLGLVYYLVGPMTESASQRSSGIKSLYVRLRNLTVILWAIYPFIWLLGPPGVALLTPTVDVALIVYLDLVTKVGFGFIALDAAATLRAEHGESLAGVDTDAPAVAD
T3 sequence (P42259 1-157 partner): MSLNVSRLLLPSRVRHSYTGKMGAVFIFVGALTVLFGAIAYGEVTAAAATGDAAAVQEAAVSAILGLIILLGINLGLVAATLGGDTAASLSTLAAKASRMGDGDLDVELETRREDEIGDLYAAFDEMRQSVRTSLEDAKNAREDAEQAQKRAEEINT

[6] = target: T3, NpSRII/NpHtrII1-157 complex (sensory rhodopsin II with its cognate transducer); assay: X-ray crystallography, trapped M intermediate; format: binding; conditions: active M state, light-induced; space group I212121; 1.9 A; covalent (retinal Schiff base, Lys205)
[7] = target: T4, sensory rhodopsin II from N. pharaonis (NpSRII) (N. pharaonis, UniProt P42196 1-239, retinal bound through a Schiff base (Lys205)); assay: crystal structure; ground state of the complex with NpHtrII 1-135 (PDB 5JJJ); in meso crystals; space group not tied to this entry in the text (P6_(4) likely); conditions: both partners purified
T4 construct: sensory rhodopsin II (NpSRII), N. pharaonis, wild type; also called the receptor; source: E. coli, purified, reconstituted into a functional complex, and resolubilized
T4 sequence (looked up): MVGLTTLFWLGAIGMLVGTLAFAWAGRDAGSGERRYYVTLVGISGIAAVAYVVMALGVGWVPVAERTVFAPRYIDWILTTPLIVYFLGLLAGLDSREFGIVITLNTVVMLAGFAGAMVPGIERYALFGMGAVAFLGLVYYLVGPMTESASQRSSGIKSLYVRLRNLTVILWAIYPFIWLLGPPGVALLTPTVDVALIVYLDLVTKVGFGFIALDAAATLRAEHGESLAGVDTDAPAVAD

[8] = target: T4, sensory rhodopsin II from N. pharaonis …; assay: crystal structure; complex with the G83F mutant, space group P2_(1)2_(1)2, "V"-shape; crystallization conditions the same as for the wild type complex in the P6_(4) space group; conditions: both partners purified
[9] = target: T4, sensory rhodopsin II from N. pharaonis …; assay: crystal structure; ground state, space group I2_(1)2_(1)2_(1), 1.9 Å; in meso crystallization (monooleoyl), 22 °C, 1 M Na/K phosphate pH 5.6, trehalose; conditions: both partners purified
[10] = target: the molecule itself; assay: as above

For NpSRII (from UniProt P42196), the Kd [1] is listed as 0.1 µM.

For “NpSRII (active state) (from UniProt P42196)”, the Kd [2] is given as 15 µM.

For `CC1=C(/C=C/C(C)=C/C=C/C(C)=C/C=O)C(C)(C)CCC1` [all-trans retinal], the X-ray crystallography [3] was “crystal structure of the NpSRII/NpHtrII1–135-G83F mutant demonstrate different crystal packing”, the X-ray crystallography [4] was 5JJJ (NpSRII/HtrII-135 ground state) and the X-ray crystallography [5] was “the retinal chromophore switches from all-trans conformation to 13-cis”.

In the case of `CC1=C(/C=C/C(C)=C/C=C/C(C)=C\C=O)C(C)(C)CCC1` [13-cis retinal], the “X-ray crystallography, trapped M intermediate” value [6] is reported as “the retinal chromophore switches from all-trans conformation to 13-cis”.

B1: NpHtrII_(1-135), shortened transducer (domain or fragment, N. pharaonis, UniProt P42259 1-135, looked up)
chain: MSLNVSRLLLPSRVRHSYTGKMGAVFIFVGALTVLFGAIAYGEVTAAAATGDAAAVQEAAVSAILGLIILLGINLGLVAATLGGDTAASLSTLAAKASRMGDGDLDVELETRREDEIGDLYAAFDEMRQSVRTSL
notes: source: E. coli, purified, reconstituted into a functional complex, and resolubilized
B1: binds [7].

B2: NpHtrII_(1-135)-G83F mutant (domain or fragment, N. pharaonis, UniProt P42259 1-135, looked up)
chain: MSLNVSRLLLPSRVRHSYTGKMGAVFIFVGALTVLFGAIAYGEVTAAAATGDAAAVQEAAVSAILGLIILLGINLGLVAATLFGDTAASLSTLAAKASRMGDGDLDVELETRREDEIGDLYAAFDEMRQSVRTSL
notes: as for B1
B2: binds [8].

B3: NpHtrII_(1-157), shortened cognate transducer of NpSRII (domain or fragment, N. pharaonis, UniProt P42259 1-157, looked up)
chain: MSLNVSRLLLPSRVRHSYTGKMGAVFIFVGALTVLFGAIAYGEVTAAAATGDAAAVQEAAVSAILGLIILLGINLGLVAATLGGDTAASLSTLAAKASRMGDGDLDVELETRREDEIGDLYAAFDEMRQSVRTSLEDAKNAREDAEQAQKRAEEINT
notes: NpHtrII, transducer of sensory rhodopsin II, N. pharaonis, residues 1-157 (transmembrane helices TM1 and TM2, HAMP1 and linker); only the transmembrane part is seen in the electron density; also called HtrII-157; the transducer; source: E. coli, purified, reconstituted into a functional complex, and resolubilized
B3: binds [9]; binds [10].
